In paper doi:10.1101/2020.07.07.192807 (bioRxiv, 2020):
Residue numbers refer to the chain shown, from its start. Names and notes keep the numbering of the source.

B1: Wild type MtrR of Neisseria gonorrhoeae (strain FA19), hexa-histidine tagged (natural protein)
chain: MRKTKTEALKTKEHLMLAALETFYRKGIARTSLNEIAQAAGVTRGALYWHFKNKEDLFDALFQRICDDIENCIAQDAADAEGGSWTVFRHTLLHFFERLQSNDIHYKFHNILFLKCEHTEQNAAVIAIARKHQAIWREKITAVLTEAVENQDLADDLDKETAVIFIKSTLDGLIWRWFSSGESFDLGKTAPRIIGIMMDNLENHPCLRRK
B2: H105Y mutant MtrR of Neisseria gonorrhoeae (from an antibiotic resistant clinical isolate), hexa-histidine tagged (natural protein)
chain: B1 chain with H105Y

Molecular target: the molecule itself
Assay: cross-linking

| Protein | stoichiometry N |
| --- | --- |
| B1 | 2 |
| B2 | 2 |
